Here are results for one substance from EP2674440A2.

One assay addresses CEA (UniProt P06731). The assay can be described thus: SE-HPLC of 125I-TF2 mixed with a 20-fold molar excess of CEA.
Assay [1] deals with fusion protein containing the A3B3 domain of CEA (UniProt P06731). The assay can be described thus: competitive ELISA against HRP-conjugated hMN-14 IgG (1 nM).

For the substance TF2 (bispecific antibody), the % of labeled TF2 shifted to a high molecular weight species with CEA was found to be 95%. In assay [1], this substance gave a fold avidity relative to TF1 of 2 fold.
